According to US20220202763A1 (FLORIDA INTERNATIONAL UNIVERSITY BOARD OF TRUSTEES, published 2022):

Biological target: the molecule itself
Test: crystal structure (chains A and B in the asymmetric unit) and size exclusion chromatography

B1: PpArsN1 (ArsN1 arsinothricin N-acetyltransferase from Pseudomonas putida KT2440), one subunit (enzyme)
chain: MHSGIDIRVARPEDAEEIQIIYAPIVLNTAISFEEAVPSVEQMRERISTTLQTYPYLVAVREGRVVGYAYASQHRARAAYRWAVDVTVYVAEGQRRSGIARQLYDVLLPVLKRLGYRSAYAGIALPNEGSVGLHERLGFQHIGTFPQVGFKLDAWHDVGYWRFDFGDEGLHPEAPLGFLSQIPVPR
notes: Written as a single subunit; also called phoN1 gene product; not shown: C-terminal six histidine tag from vector pBAD-Myc/His-A; the vector-derived residues between protein and tag are not sta
- binding result: binds
